This note sets out measurements from paper PMC4660060, “The molecular architecture of the Dam1 kinetochore complex is defined by cross-linking based structural modelling” (Nature Communications, 2015).

Positions count from the first letter of the chain named. In names and notes the source's numbering stands.

Data set [1] deals with the molecule itself. Description: electron microscopy; cross-linked Dam1 complex on MTs examined by EM.
Data set [2] concerns the molecule itself. As to the kind of experiment: TIRF microscopy, tracer residence time; GFP-tagged and unlabelled versions of the same mutant Dam1 complex mixed 1:100 to 2 nM in all (20 pM tracer), on immobilised MTs; BRB80, 0.8 mg/ml kappa-casein, 50 mM KCl, oxygen scavengers; concentrations that support oligomeric rings.

B1: Dam1 complex (complex, yeast)
chain 1: MDSASKEETLEKLDQEITVNLQKIDSNLSFCFHKITQDIIPHVATYSEICERIMDSTEWLGTMFQETGLVNLQANAAAPVGNAPVKSLVSNNVGIFPTSAEEASRQSQTDNGPNEADSAVHVNRDVHSMFNNDSIDDFHTANITSTGQILKLPDSSDEDTGSEAVPSREQTDLTGEGHGGADDEQDESTIQRQSRKRKISLLLQQQYGSSSSMVPSPIVPNKMRKQLAHEEHINNDGDNDDENSNNIESSPLKQGHHHPKGQADDNNEGPDEEESTKEVPKPGTIIHFSTNR
chain 2: MMASTSNDEEKLISTTDKYFIEQRNIVLQEINETMNSILNGLNGLNISLESSIAVGREFQSVSDLWKTLYDGLESLSDEAPIDEQPTLSQSKTK
chain 3: MDSIDEQIAIKRKELQSLQKITSLTDGLKIQLTELNEQIKEMGMNADSVAQLMNNWDSIINNISQASLGLLQYAEGDYEIGPWKDSKKKESEQSNETGLEAQENDKNDEDNDEDEDLVPLPETMVRIRVDGNE
chain 4: MEHNLSPLQQEVLDKYKQLSLDLKALDETIKELNYSQHRQQHSQQETVSPDEILQEMRDIEVKIGLVGTLLKGSVYSLILQRKQEQESLGSNSK
chain 5: MENPHEQVQANILSRIIGNVKRLNESVAILNQELVTINNRNKNLEIMGAICDNYHSSVQFNLEATNNKKPPL
chain 6: MSEDKAKLGTTRSATEYRLSIGSAPTSRRSSMGESSSLMKFADQEGLTSSVGEYNENTIQQLLLPKIRELSDSIITLDSNFTRLNFIHESLADLNESLGSLLYGIMSNSWCVEFSQAPHDIQDDLIAIKQLKSLEDEKNNLVMELSNMERGIKRKKDEQGENDLAKASQNKQFNQPLFPSSQVRKYRSYDNRDKRKPSKIGNNLQVENEEDYEDDTSSEASFVLNPTNIGMSKSSQGHVTKTTRLNNNTNSKLRRKSILHTIRNSIASGADLPIENDNVVNLGDLHPNNRISLGSGAARVVNGPVTKNRNSMFSGRAERKPTESRHSVAKKTEKKINTRPPFR
chain 7: MSEQSQLDDSTIDKLIPQIFNEMRSNLNNTTNKFPKSTGGGASDNISANSNSIRSFNSITTQSLLKESESLDKITAMIKNVTAALKNNLPVYVNQVHEVCKSTNSILDSWINIHSQAGYIHKLMSDQTYLKLINDRLHNENVNTNDEDGSTLHNVIALKKKEILDLRQKLENRKGEKDAAPAKPPNQGLNPRYGVQSGRRPVPSAGISNNGRVRKTHVPASKRPSGIPRVTNRWTKPTASSSRKMFR
chain 8: MNANKQRQYNQLAHELRELQTNLQETTKQLDIMSKQCNENLVGQLGKVHGSWLIGSYIYYMEQMLGKTQ
chain 9: MTDALEQSVLALEGTVSVLKDSVESLKCANEPSTNLASTMLQTKRVFRLVPEYDVERSKLDLIEEVEPLVRTLGDKLRKSMGRMQRELDTLQQTYELNDLRLKKNISMDDDDALNSPDMGQEYEGRDADDVVMMASSTNEELEELKKLKEKKKQLENKLEILKQK
chain 10: MGESLDRCIDDINRAVDSMSTLYFKPPGIFHNAILQGASNKASIRKDITRLIKDCNHDEAYLLFKVNPEKQSVSRRDGKEGVFDYVIKRDTDMKRNRRLGRPGEKPIIHVPKEVYLNKDRLDLNNKRRRTATTSGGGLNGFIFDTDLIGSSVISNSSSGTFKALSAVFKDDPQIQRLLYALENGSVLMEEESNNQRRKTIFVEDFPTDLILKVMAEVTDLWPLTEFKQDYDQLYHNYEQLSSKLRFIKKEVLLQDDRLKTMSQYHPSSSHDVAKIIRKEKDEIRRLEMEIANLQE
notes: Ten different subunits; also called Dam1 kinetochore complex; free Dam1 complex; copies: + + + + + + + + +
Regarding B1, the binding result in data set [1] was “binds”.

B2: Dam1-GFP NP complex, phosphorylated by Ipl1 (Dam1p S257A, S265A, S292A, Ask1p S200A, Spc34p T199A; Dam1p S20 phosphorylated) (complex, yeast)
chain 1: B1 chain 1 with S200A
chain 2: B1 chain 2
chain 3: B1 chain 3
chain 4: B1 chain 4
chain 5: B1 chain 5
chain 6: B1 chain 6 with S257A, S265A, S292A
chain 7: B1 chain 7
chain 8: B1 chain 8
chain 9: B1 chain 9
chain 10: B1 chain 10 with T199A
modifications: phosphoserine at S20 (by Ipl1 kinase, nearly stoichiometric)
notes: GFP-tagged complex, detected by its GFP; In the tracer assay 20 pM of this complex met 2 nM of the same phosphorylated mutant complex without GFP; also called Dam1 NP phos; Dam1 NP; source: recombinant Dam1 complex (E. coli BL21 Rosetta, purified); phosphorylated with GST-Ipl1, GST-Sli15 (554-698) and 10 mM ATP, 90 min, 30 °C; copies: + + + + + + + + +
For B2, the “fold increase of the average residence time on MTs against single molecules” value in data set [2] was 2 fold.
